# Measured values as given in patent publication US20050070470A1 (ADMINISTRATORS OF THE TULANE EDUCATIONAL FUND, published 2005).
# *1 amine or outer side, *2 acyl side, *3 side chain or, on linkers, in order; H or OH if unused. Bridges are numbered along the chain shown (N, C = ends). Where no end group is shown, it is not given here. [ ]: non-standard residue; d: D form. MTXCOO‑CH2CO = methotrexate-acetyl; 4Pal = N[C@@H](Cc1ccncc1)C(=O)O; Suc = O=C(CCC(=O)[*:2])[*:1]; hSer = N[C@@H](CCO)C(=O)O; Nle = CCCC[C@H](N)C(=O)O; Nva = CCC[C@H](N)C(=O)O; Abu = CC[C@H](N)C(=O)O
# B1: D-Ser-D-Ser-D-Ser-D-Ser-D-Ser-L-Asp-D-Tyr-D-Ser-cyclo[L-Cys-L-Phe-D-Trp-L-Lys-L-Thr-L-Cys]-L-Thr-NH2 (peptide)
# peptide: [dS][dS][dS][dS][dS]D[dY][dS]CF[dW]KTCT-NH2
# modifications: disulfide 9-14; N-terminus assumed
# SMILES: C[C@@H](O)[C@H](NC(=O)[C@@H]1CSSC[C@H](NC(=O)[C@@H](CO)NC(=O)[C@@H](Cc2ccc(O)cc2)NC(=O)[C@H](CC(=O)O)NC(=O)[C@@H](CO)NC(=O)[C@@H](CO)NC(=O)[C@@H](CO)NC(=O)[C@@H](CO)NC(=O)[C@H](N)CO)C(=O)N[C@@H](Cc2ccccc2)C(=O)N[C@H](Cc2c[nH]c3ccccc23)C(=O)N[C@@H](CCCCN)C(=O)N[C@@H]([C@@H](C)O)C(=O)N1)C(N)=O
# B2: D-Ser-D-Ser-D-Ser-D-Ser-D-Ser-L-4Pal-D-Tyr-D-Ser-cyclo[L-Cys-L-Phe-D-Trp-L-Lys-L-Thr-L-Cys]-L-Thr-NH2 (peptide)
# peptide: [dS][dS][dS][dS][dS][4Pal][dY][dS]CF[dW]KTCT-NH2
# modifications: disulfide 9-14; N-terminus assumed
# SMILES: C[C@@H](O)[C@H](NC(=O)[C@@H]1CSSC[C@H](NC(=O)[C@@H](CO)NC(=O)[C@@H](Cc2ccc(O)cc2)NC(=O)[C@H](Cc2ccncc2)NC(=O)[C@@H](CO)NC(=O)[C@@H](CO)NC(=O)[C@@H](CO)NC(=O)[C@@H](CO)NC(=O)[C@H](N)CO)C(=O)N[C@@H](Cc2ccccc2)C(=O)N[C@H](Cc2c[nH]c3ccccc23)C(=O)N[C@@H](CCCCN)C(=O)N[C@@H]([C@@H](C)O)C(=O)N1)C(N)=O
# B3: D-Ser-D-Ser-D-Ser-D-Ser-D-Ser-L-Lys-D-Tyr-D-Ser-cyclo[L-Cys-L-Phe-D-Trp-L-Lys-L-Thr-L-Cys]-L-Thr-NH2 (peptide)
# peptide: [dS][dS][dS][dS][dS]K[dY][dS]CF[dW]KTCT-NH2
# modifications: disulfide 9-14; not fully specified; printed as D-Ser-D-Ser-D-Ser-D-Ser-D-Ser-L-Lys-D-Tyr-D-Ser-cyclo[L-Cys-L-Phe-D-Trp-L-Lys-L-Thr-L-Cys]-L-Thr-NH2
# B4: D-Ser-D-Ser-D-Ser-D-Ser-D-Ser-L-Norleucine-D-Tyr-D-Ser-cyclo[L-Cys-L-Phe-D-Trp-L-Lys-L-Thr-L-Cys]-L-Thr-NH2 (peptide)
# peptide: [dS][dS][dS][dS][dS][Nle][dY][dS]CF[dW]KTCT-NH2
# modifications: disulfide 9-14; N-terminus assumed
# SMILES: CCCC[C@H](NC(=O)[C@@H](CO)NC(=O)[C@@H](CO)NC(=O)[C@@H](CO)NC(=O)[C@@H](CO)NC(=O)[C@H](N)CO)C(=O)N[C@H](Cc1ccc(O)cc1)C(=O)N[C@H](CO)C(=O)N[C@H]1CSSC[C@@H](C(=O)N[C@H](C(N)=O)[C@@H](C)O)NC(=O)[C@H]([C@@H](C)O)NC(=O)[C@H](CCCCN)NC(=O)[C@@H](Cc2c[nH]c3ccccc23)NC(=O)[C@H](Cc2ccccc2)NC1=O
# B5: D-Ser-D-Ser-D-Ser-D-Ser-D-Ser-L-hSer-D-Tyr-D-Ser-cyclo[L-Cys-L-Phe-D-Trp-L-Lys-L-Thr-L-Cys]-L-Thr-NH2 (peptide)
# peptide: [dS][dS][dS][dS][dS][hSer][dY][dS]CF[dW]KTCT-NH2
# modifications: disulfide 9-14; N-terminus assumed
# SMILES: C[C@@H](O)[C@H](NC(=O)[C@@H]1CSSC[C@H](NC(=O)[C@@H](CO)NC(=O)[C@@H](Cc2ccc(O)cc2)NC(=O)[C@H](CCO)NC(=O)[C@@H](CO)NC(=O)[C@@H](CO)NC(=O)[C@@H](CO)NC(=O)[C@@H](CO)NC(=O)[C@H](N)CO)C(=O)N[C@@H](Cc2ccccc2)C(=O)N[C@H](Cc2c[nH]c3ccccc23)C(=O)N[C@@H](CCCCN)C(=O)N[C@@H]([C@@H](C)O)C(=O)N1)C(N)=O
# B6: D-Ser-D-Ser-D-Ser-D-Ser-D-Ser-L-Thr-D-Tyr-D-Ser-cyclo[L-Cys-L-Phe-D-Trp-L-Lys-L-Thr-L-Cys]-L-Thr-NH2 (peptide)
# peptide: [dS][dS][dS][dS][dS]T[dY][dS]CF[dW]KTCT-NH2
# modifications: disulfide 9-14; N-terminus assumed
# SMILES: C[C@@H](O)[C@H](NC(=O)[C@@H]1CSSC[C@H](NC(=O)[C@@H](CO)NC(=O)[C@@H](Cc2ccc(O)cc2)NC(=O)[C@@H](NC(=O)[C@@H](CO)NC(=O)[C@@H](CO)NC(=O)[C@@H](CO)NC(=O)[C@@H](CO)NC(=O)[C@H](N)CO)[C@@H](C)O)C(=O)N[C@@H](Cc2ccccc2)C(=O)N[C@H](Cc2c[nH]c3ccccc23)C(=O)N[C@@H](CCCCN)C(=O)N[C@@H]([C@@H](C)O)C(=O)N1)C(N)=O
# B7: Succinate-D-Asp-D-Ser-D-Ser-D-Ser-D-Ser-D-Ser-L-Thr-D-Tyr-D-Ser-cyclo[L-Cys-L-Phe-D-Trp-L-Lys-L-Thr-L-Cys]-L-Thr-NH2 (peptide)
# peptide: Suc-[dD][dS][dS][dS][dS][dS]T[dY][dS]CF[dW]KTCT-NH2
# modifications: disulfide 10-15
# SMILES: C[C@@H](O)[C@H](NC(=O)[C@@H]1CSSC[C@H](NC(=O)[C@@H](CO)NC(=O)[C@@H](Cc2ccc(O)cc2)NC(=O)[C@@H](NC(=O)[C@@H](CO)NC(=O)[C@@H](CO)NC(=O)[C@@H](CO)NC(=O)[C@@H](CO)NC(=O)[C@@H](CO)NC(=O)[C@@H](CC(=O)O)NC(=O)CCC(=O)O)[C@@H](C)O)C(=O)N[C@@H](Cc2ccccc2)C(=O)N[C@H](Cc2c[nH]c3ccccc23)C(=O)N[C@@H](CCCCN)C(=O)N[C@@H]([C@@H](C)O)C(=O)N1)C(N)=O
# B8: D-Gln-D-Gln-D-Gln-D-Gln-D-Gln-D-Gln-D-Gln-D-Gln-D-Gln-D-Gln-L-Lys-D-Tyr-D-Tyr-cyclo[L-Cys-L-Phe-D-Trp-L-Lys-L-Thr-L-Cys]-L-Thr-NH2 (peptide)
# peptide: [dQ][dQ][dQ][dQ][dQ][dQ][dQ][dQ][dQ][dQ]K[dY][dY]CF[dW]KTCT-NH2
# modifications: disulfide 14-19; N-terminus assumed
# SMILES: C[C@@H](O)[C@H](NC(=O)[C@@H]1CSSC[C@H](NC(=O)[C@@H](Cc2ccc(O)cc2)NC(=O)[C@@H](Cc2ccc(O)cc2)NC(=O)[C@H](CCCCN)NC(=O)[C@@H](CCC(N)=O)NC(=O)[C@@H](CCC(N)=O)NC(=O)[C@@H](CCC(N)=O)NC(=O)[C@@H](CCC(N)=O)NC(=O)[C@@H](CCC(N)=O)NC(=O)[C@@H](CCC(N)=O)NC(=O)[C@@H](CCC(N)=O)NC(=O)[C@@H](CCC(N)=O)NC(=O)[C@@H](CCC(N)=O)NC(=O)[C@H](N)CCC(N)=O)C(=O)N[C@@H](Cc2ccccc2)C(=O)N[C@H](Cc2c[nH]c3ccccc23)C(=O)N[C@@H](CCCCN)C(=O)N[C@@H]([C@@H](C)O)C(=O)N1)C(N)=O
# B9: D-Ser-D-Ser-D-Ser-D-Ser-D-Ser-L-Gln-D-Tyr-D-Ser-cyclo[L-Cys-L-Phe-D-Trp-L-Lys-L-Thr-L-Cys]-L-Thr-NH2 (peptide)
# peptide: [dS][dS][dS][dS][dS]Q[dY][dS]CF[dW]KTCT-NH2
# modifications: disulfide 9-14; N-terminus assumed
# SMILES: C[C@@H](O)[C@H](NC(=O)[C@@H]1CSSC[C@H](NC(=O)[C@@H](CO)NC(=O)[C@@H](Cc2ccc(O)cc2)NC(=O)[C@H](CCC(N)=O)NC(=O)[C@@H](CO)NC(=O)[C@@H](CO)NC(=O)[C@@H](CO)NC(=O)[C@@H](CO)NC(=O)[C@H](N)CO)C(=O)N[C@@H](Cc2ccccc2)C(=O)N[C@H](Cc2c[nH]c3ccccc23)C(=O)N[C@@H](CCCCN)C(=O)N[C@@H]([C@@H](C)O)C(=O)N1)C(N)=O
# B10: D-Ser-D-Ser-D-Ser-D-Gln-D-Ser-D-Ser-D-Ser-D-Gln-D-Ser-D-Ser-D-Ser-D-Gln-L-Norvaline-D-Tyr-D-Ser-cyclo[L-Cys-L-Phe-D-Trp-L-Lys-L-Thr-L-Cys]-L-Thr-NH2 (peptide)
# peptide: [dS][dS][dS][dQ][dS][dS][dS][dQ][dS][dS][dS][dQ][Nva][dY][dS]CF[dW]KTCT-NH2
# modifications: disulfide 16-21; N-terminus assumed
# SMILES: CCC[C@H](NC(=O)[C@@H](CCC(N)=O)NC(=O)[C@@H](CO)NC(=O)[C@@H](CO)NC(=O)[C@@H](CO)NC(=O)[C@@H](CCC(N)=O)NC(=O)[C@@H](CO)NC(=O)[C@@H](CO)NC(=O)[C@@H](CO)NC(=O)[C@@H](CCC(N)=O)NC(=O)[C@@H](CO)NC(=O)[C@@H](CO)NC(=O)[C@H](N)CO)C(=O)N[C@H](Cc1ccc(O)cc1)C(=O)N[C@H](CO)C(=O)N[C@H]1CSSC[C@@H](C(=O)N[C@H](C(N)=O)[C@@H](C)O)NC(=O)[C@H]([C@@H](C)O)NC(=O)[C@H](CCCCN)NC(=O)[C@@H](Cc2c[nH]c3ccccc23)NC(=O)[C@H](Cc2ccccc2)NC1=O
# B11: D-Ser-D-Ser-D-Ser-D-Ser-D-Ser-L-Lys-D-Tyr-D-Tyr-cyclo[L-Cys-L-Phe-D-Trp-L-Lys-L-Thr-L-Cys]-L-Thr-NH2 (peptide)
# peptide: [dS][dS][dS][dS][dS]K[dY][dY]CF[dW]KTCT-NH2
# modifications: disulfide 9-14; N-terminus assumed
# SMILES: C[C@@H](O)[C@H](NC(=O)[C@@H]1CSSC[C@H](NC(=O)[C@@H](Cc2ccc(O)cc2)NC(=O)[C@@H](Cc2ccc(O)cc2)NC(=O)[C@H](CCCCN)NC(=O)[C@@H](CO)NC(=O)[C@@H](CO)NC(=O)[C@@H](CO)NC(=O)[C@@H](CO)NC(=O)[C@H](N)CO)C(=O)N[C@@H](Cc2ccccc2)C(=O)N[C@H](Cc2c[nH]c3ccccc23)C(=O)N[C@@H](CCCCN)C(=O)N[C@@H]([C@@H](C)O)C(=O)N1)C(N)=O
# Target: somatostatin subtype 2 rat receptor (rat, UniProt P30680 1-369)
# Sequence (P30680 whole entry): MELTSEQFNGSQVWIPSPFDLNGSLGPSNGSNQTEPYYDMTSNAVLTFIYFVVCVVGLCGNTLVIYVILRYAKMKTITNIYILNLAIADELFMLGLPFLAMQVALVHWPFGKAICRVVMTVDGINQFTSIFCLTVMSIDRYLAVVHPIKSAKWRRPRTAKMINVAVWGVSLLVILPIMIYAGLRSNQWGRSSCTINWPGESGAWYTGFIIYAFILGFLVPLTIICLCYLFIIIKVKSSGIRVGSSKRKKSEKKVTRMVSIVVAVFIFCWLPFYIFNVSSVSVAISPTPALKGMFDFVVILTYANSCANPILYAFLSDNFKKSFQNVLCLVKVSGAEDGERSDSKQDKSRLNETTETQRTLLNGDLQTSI
# Assay: cell-based or functional assay
row,Binder,"IC50 (nM), inhibition of GH release from primary cultures of rat pituitary cells [nM]"
1,{MTXCOO‑CH2CO}-[dS][dS][dS][dS][dS]K[dY][dY]CF[dW]KTCT-NH2 (cysteine pairing not given here) [MTXCOO-CH2CO-(D-Ser)5-Lys-D-Tyr-D-Tyr-Cys-Phe-D-Trp-Lys-Thr-Cys-Thr-NH2],0.16
2,succinate-[dD][dS][dS][dS][dS][dS][Nle][dY][dS]CF[dW]KTCT-NH2 (disulfide 10-15),0.52
3,B1,7.55
4,succinate-[dS][dS][dS][dS][dS][Abu][dY][dS]CF[dW]KTCT-NH2 (disulfide 9-14),0.61
5,Succinate-[dS][dS][dS][dS][dS]S[dY][dS]CF[dW]KTCT-NH2 (disulfide 9-14),5.6
6,{MTXCOO‑CH2CO}-[dK][dY]K[dY][dK]CF[dW]KTCT-NH2 (cysteine pairing not given here) [MTXCOO-CH2CO-D-Lys-D-Tyr-Lys-D-Tyr-D-Lys-Cys-Phe-D-Trp-Lys-Thr-Cys-Thr-NH2],0.62
7,B2,0.18
8,B3,0.086
9,B4,0.094
10,B5,0.55
11,B6,0.72
12,B7,5.17
13,"{3‑N,N‑dimethylaminobenzoyl}-[dS][dS][dS][dS][dS][dS][dS][dS][dS][dS][dS][dS][dS][dS][dS]K[dY][dY]CF[dW]KTCT-NH2 (disulfide 19-24)",0.27
14,mercaptoacetate-GG[dD][dS][dS][dS][dS][dS][4Pal][dY][dS]CF[dW]KTCT-NH2 (disulfide 12-17),0.97
15,B8,0.24
16,B9,0.45
17,B10,0.93
18,B11,0.14
